According to PMC3556126, “The site-specific integration reaction of Listeria phage A118 integrase, a serine recombinase”:

Columns and labels:
[1] = target: Listeria phage A118 integrase, N-terminally histidine tagged, full-length (Listeria phage A118); test: SEC; FPLC Superdex-200 10/300 GL; 20 mM HEPES pH 7.5, 1 M NaCl, 1 mM DTT, 10% glycerol; 0.4 ml/minute; 23°C
[2] = target: T1, A118 integrase (HisInt) (Listeria monocytogenes phage A118, UniProt Q8Y4U8 1-452); test: EMSA; conditions: 20 mM HEPES pH 7.5, 100 mM NaCl, 0.1 mg/ml BSA, 5 mM spermidine, 5 mM DTT, 5% glycerol, 50 ug/ml salmon sperm DNA, about 0.1 pmol probe in 10 ul, 30 C 30 min …
T1 sequence: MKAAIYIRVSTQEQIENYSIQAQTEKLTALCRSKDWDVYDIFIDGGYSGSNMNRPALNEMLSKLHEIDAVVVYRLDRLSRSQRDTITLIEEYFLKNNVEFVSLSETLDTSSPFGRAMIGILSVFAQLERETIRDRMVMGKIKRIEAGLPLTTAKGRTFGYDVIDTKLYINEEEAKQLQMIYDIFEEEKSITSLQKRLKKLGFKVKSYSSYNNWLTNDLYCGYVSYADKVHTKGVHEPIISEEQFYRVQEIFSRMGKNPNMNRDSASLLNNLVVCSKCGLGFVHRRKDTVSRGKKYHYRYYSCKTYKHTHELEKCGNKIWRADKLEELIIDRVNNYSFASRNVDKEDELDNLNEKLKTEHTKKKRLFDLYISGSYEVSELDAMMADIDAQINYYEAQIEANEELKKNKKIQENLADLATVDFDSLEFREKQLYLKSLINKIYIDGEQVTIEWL

[3] = target: T2, A118 integrase C-terminal domain (HisInt158-452) (Listeria monocytogenes phage A118) (UniProt Q8Y4U8); test: EMSA; conditions: mainly complex I, 20 mM HEPES pH 7.5, 100 mM NaCl, 0.1 mg/ml BSA, 5 mM spermidine, 5 mM DTT, 5% glycerol, 50 ug/ml salmon sperm DNA, about 0.1 pmol probe in 10 ul, 30 C 30 min …
T2 sequence: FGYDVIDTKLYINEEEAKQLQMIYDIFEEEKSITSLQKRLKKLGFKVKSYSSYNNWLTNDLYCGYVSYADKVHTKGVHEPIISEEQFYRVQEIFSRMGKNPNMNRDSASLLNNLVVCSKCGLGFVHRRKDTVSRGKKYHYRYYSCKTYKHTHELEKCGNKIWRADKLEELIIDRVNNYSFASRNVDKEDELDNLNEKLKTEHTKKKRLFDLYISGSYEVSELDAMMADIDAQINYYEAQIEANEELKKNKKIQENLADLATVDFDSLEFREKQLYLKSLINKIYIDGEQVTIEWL

[4] = target: T1, A118 integrase (HisInt); test: EMSA; 810 nM; 20 mM HEPES pH 7.5, 100 mM NaCl, 0.1 mg/ml BSA, 5 mM spermidine, 5 mM DTT, 5% glycerol, 50 ug/ml salmon sperm DNA, about 0.1 pmol probe in 10 ul, 30 C 30 min; 6% PAGE in 0.5x TBE at room temperature; conditions: protein: recombinant; tags: N-terminal His (pET15b); chain copies: 2; label: 32P; blunt
[5] = target: T1, A118 integrase (HisInt); test: EMSA; predominantly dimer; 20 mM HEPES pH 7.5, 100 mM NaCl, 0.1 mg/ml BSA, 5 mM spermidine, 5 mM DTT, 5% glycerol, 50 ug/ml salmon sperm DNA, about 0.1 pmol probe in 10 ul, 30 C 30 min; 6% PAGE in 0.5x TBE at room temperature; conditions: protein: recombinant; tags: N-terminal His (pET15b); chain copies: 2; label: 32P; blunt
[6] = target: T1, A118 integrase (HisInt); test: protease protection; twofold molar excess of DNA; chymotrypsin or proteinase K; 20 mM HEPES pH 7.5, 100 mM NaCl, 0.1 mg/ml BSA, 5 mM spermidine, 5 mM DTT, 5% glycerol, 50 ug/ml salmon sperm DNA, about 0.1 pmol probe in 10 ul, 30 C 30 min; 6% PAGE in 0.5x TBE at room temperature; conditions: protein: recombinant; tags: N-terminal His (pET15b); chain copies: 2; blunt
[7] = target: T3, A118 integrase C-terminal domain (HisInt158-452) (Listeria monocytogenes phage A118, UniProt Q8Y4U8 158-452); test: EMSA; 810 nM; 20 mM HEPES pH 7.5, 100 mM NaCl, 0.1 mg/ml BSA, 5 mM spermidine, 5 mM DTT, 5% glycerol, 50 ug/ml salmon sperm DNA, about 0.1 pmol probe in 10 ul, 30 C 30 min; 6% PAGE in 0.5x TBE at room temperature; conditions: protein: recombinant; tags: N-terminal His (pET15b); label: 32P; blunt
T3 sequence: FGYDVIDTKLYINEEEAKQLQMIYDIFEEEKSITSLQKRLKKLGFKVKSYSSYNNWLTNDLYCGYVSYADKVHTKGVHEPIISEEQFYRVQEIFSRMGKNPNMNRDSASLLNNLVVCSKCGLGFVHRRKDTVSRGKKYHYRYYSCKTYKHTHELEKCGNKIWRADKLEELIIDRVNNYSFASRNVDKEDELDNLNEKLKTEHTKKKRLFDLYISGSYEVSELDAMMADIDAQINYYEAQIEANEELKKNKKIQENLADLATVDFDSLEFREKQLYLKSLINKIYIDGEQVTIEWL

[8] = dimer complex, apparent, panel assignment by order

Work on “Listeria phage A118 integrase, N-terminally histidine tagged, full-length (enzyme)” yielded a stoichiometry N [1] of 2.

Molecule attB 100 bp has a Kd [2] of 72 nM and a Kd ([3]; binds much less than attP) greater than 800 nM.

With attL 100 bp the Kd [2, 8] was 75 nM.

attP 100 bp gave a Kd [2] of 48 nM and a Kd [3] of 145 nM.

attR 100 bp showed a Kd [2, 8] of 60 nM.

B1: attB -oB' half-site (dsDNA)
DNA 1: CCGCGCATAGGAGGAACCCTGGGACGCAAAGAGGGAACTAAACA
DNA 2: TGTTTAGTTCCCTCTTTGCGTCCCAGGGTTCCTCCTATGCGCGG
B1: no binding [4].

B2: attP Po- half-site (dsDNA)
DNA 1: TTTAGTTCCTCGTTTTCTCTCGTTGGACTCCTCCTCGCTCGTCCCAGCCC
DNA 2: GGGCTGGGACGAGCGAGGAGGAGTCCAACGAGAGAAAACGAGGAACTAAA
B2 was tested, and the Kd [5] was roughly 1000 nM.

B3: attP 50 bp (dsDNA)
DNA 1: TTTAGTTCCTCGTTTTCTCTCGTTGGAAGAAGAAGAAACGAGAAACTAAA
DNA 2: TTTAGTTTCTCGTTTCTTCTTCTTCCAACGAGAGAAAACGAGGAACTAAA
B3: binds [6].

B4: attP -oP' half-site (dsDNA)
DNA 1: GCCCGACCAAGTTCGCGCAGGAGGGGAAGAAGAAGAAACGAGAAACTAAA
DNA 2: TTTAGTTTCTCGTTTCTTCTTCTTCCCCTCCTGCGCGAACTTGGTCGGGC
B4: no binding [4]; no binding [7].
